This assay addresses BST-2 with N-terminal SmBiT (UniProt Q10589). Description: split reporter (BiFC, NanoBiT); HEK293T cells in 96-well plates co-transfected 1:1 with plasmids for the Vpu and BST-2 LgBiT/SmBiT fusions; Nano-Glo Live Cell Substrate added, luminescence read in live cells; negative control HaloTag with SmBiT.
Chain of UniProt Q10589 (Q10589 1-161): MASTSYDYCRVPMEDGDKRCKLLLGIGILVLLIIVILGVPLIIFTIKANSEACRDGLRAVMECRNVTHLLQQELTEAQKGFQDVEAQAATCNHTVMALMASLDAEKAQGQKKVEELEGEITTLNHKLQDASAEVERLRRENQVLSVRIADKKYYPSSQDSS

Chain of Vpu with C-terminal LgBiT (P05919 whole entry): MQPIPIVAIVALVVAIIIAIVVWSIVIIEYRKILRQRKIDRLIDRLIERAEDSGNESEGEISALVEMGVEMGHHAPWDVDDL

As to “Vpu with C-terminal LgBiT (from UniProt P05919 1-82) (natural protein)”, the fold luminescence over control 15 min after adding substrate came out at 100 fold; the fold luminescence over control (Vpu with C-terminal LgBiT and HaloTag with SmBiT) is 95 fold.

These data come from PMC8431494.
